Data on two substances can be found in patent US20060134087A1, “ITI-D1 Kunitz domain mutants as hNE inhibitors” (Dyax Corp., priority 1988, published 2006).

Data set [1] has as its target T1, hNE (Homo sapiens, UniProt P08246).
T1 sequence (P08246 30-267): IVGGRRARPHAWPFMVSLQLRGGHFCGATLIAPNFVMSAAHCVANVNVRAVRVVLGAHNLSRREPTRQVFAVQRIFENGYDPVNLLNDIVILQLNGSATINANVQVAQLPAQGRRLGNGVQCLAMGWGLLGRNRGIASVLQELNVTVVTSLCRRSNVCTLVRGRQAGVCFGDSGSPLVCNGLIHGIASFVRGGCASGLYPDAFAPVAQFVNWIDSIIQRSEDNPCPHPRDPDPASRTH
Briefly: Kinetic on-rate of inhibitors reacting with hNE (progressive inhibition). In kind it is biochemical. The conditions noted are these: for kon: [hNE] = 8.47 × 10^−10 molar; for koff: calculated from koff = KD × kon. On the procedure:
The kinetic on-rates for the inhibitors reacting with hNE (kon) were determined from measurements of progressive inhibition of substrate hydrolytic activity by hNE following addition of inhibitor. For these experiments, a known concentration of inhibitor was added to a solution of hNE (0.847 nM) and substrate (25 μM) in 2 ml of reaction buffer in a plastic fluorescence cuvette. The change in fluorescence was recorded continuously following addition of the inhibitor. […] The enzymatic rate at selected times following addition of the inhibitor was determined from the slope of the tangent to the fluorescence time course at that time.
The kinetic constant kon for EPI-HNE-2 reacting with hNE was determined as follows. EPI-HNE-2 at 1.3 nM was added to buffer containing 0.867 nM hNE (I:E=1.5:1) at time 0. Measured percent residual activity was recorded as a function of time after addition of inhibitor. A least-squares fit program was used to obtain the value of kon=4.0×10^6 M^−1s^−1.
The kinetic off rate, koff, is calculated from the measured values of Ki and kon as: […] The values from such measurements are included in Table 30. The EPI-HNE proteins are small, high affinity, fast acting inhibitors of hNE. B. Specificity.

In data set [2] the target is T1, hNE. Briefly: Resistance to oxidative inactivation by Chloramine-T, residual hNE-inhibition activity. In kind it is physicochemical. Conditions: for Percent Residual hNE-Inhibitory Activity: 20 minutes at RT. On the procedure: At the end of the incubation period, the oxidation reactions were quenched by adding methionine to a final concentration of 4 mM. After a further 10 minute incubation, the quenched reactions were diluted and assayed for residual inhibitor activity in our standard hNE-inhibition assay.
Inhibitors were incubated in the presence of Chloramine-T at the molar ratios indicated for 20 minutes at RT. Oxidation reactions were quenched by adding methionine to a final concentration of 4 mM. Residual hNE-inhibition activity remaining in the quenched reactions is shown as a percentage of the activity observed with no added oxidant.

The mark [3] stands for this setting: Molar Ratio CHL-T:Inhibitor 1.0.
The mark [4] stands for this setting: Molar Ratio CHL-T:Inhibitor 10.
The mark [5] stands for this setting: Molar Ratio CHL-T:Inhibitor .50.

In the case of “EPI-HNE-2: EPI-HNE-1 with four additional residues EAEA at the amino terminus, SEQ ID NO 008”, the kon with hNE [1] is given as 4.0 10^6/M/s. The koff with hNE [1] is 20. 10^−6/s. The “Percent Residual hNE-Inhibitory Activity” value with hNE [2] (Molar Ratio CHL-T:Inhibitor 0) stood at 100%; in the data set with hNE [2] (Molar Ratio CHL-T:Inhibitor 0.25), 94%; with hNE [2] (setting [3]) it was 102%; with hNE [2] (Molar Ratio CHL-T:Inhibitor 1.5), 95%; with hNE [2] (Molar Ratio CHL-T:Inhibitor 2.0), 102%; in the data set with hNE [2] (Molar Ratio CHL-T:Inhibitor 4.0), 95%. Also, the “Percent Residual hNE-Inhibitory Activity” value is 98% with hNE [2] (setting [4]) and 102% in the data set with hNE [2] (setting [5]).
For the substance “EPI-HNE-3: ITI-D2(3-58) with R15I, I18F, Q19P, L20R; SEQ ID NO 026 (AACNLPIVRGPCIAFFPRWAFDAVKGKCVLFPYGGCQGNGNKFYSEKECREYCGVP; Epi-HNE-3)”, the kon with hNE [1] is 8.0 10^6/M/s. In addition, in the data set with hNE [1], the koff is listed as 50. 10^−6/s. The “Percent Residual hNE-Inhibitory Activity” value with hNE [2] (Molar Ratio CHL-T:Inhibitor 0) came to 100%; with hNE [2] (setting [3]), 97%; with hNE [2] (Molar Ratio CHL-T:Inhibitor 3.0), 97%; in the data set with hNE [2] (Molar Ratio CHL-T:Inhibitor 5.0), 94%; with hNE [2] (setting [4]) it was 97%; in the data set with hNE [2] (Molar Ratio CHL-T:Inhibitor 30.), 100%. Further, the figures for the “Percent Residual hNE-Inhibitory Activity” value in the data set with hNE [2] (Molar Ratio CHL-T:Inhibitor 50.) and with hNE [2] (setting [5]) were 94% and 97%, respectively. The “hNE-inhibition activity after exposure to Chloramine-T” value with hNE [2] (all molar ratios tested (up to 50:1 for EPI-HNE-3 and EPI-HNE-4)) is on record as “retain essentially complete hNE-inhibition activity”.
